The text below walks through data of doi:10.1101/2025.09.24.678203 (bioRxiv, 2025).

The target in assay [1] is T1, T. brucei canonical histone H3 (T. brucei brucei, UniProt Q4GYX7 2-133).
T1 construct: Canonical histone H3 of Trypanosoma brucei brucei, Tb927.1.2430, pET21a plasmid from the Janzen lab; also called Tb H3
The assay can be described thus: in vitro reconstitution of histone octamers and nucleosomes (SEC, native PAGE, SDS-PAGE); purified histones combined at a 1.2:1.2:1:1 H2A:H2B:H3(V):H4(V) molar ratio, dialysed into 2 M NaCl Octamer Buffer, octamers purified on Superdex200; wrapped with Widom 601 145 bp, Widom 603 177 bp or Widom 603 193 bp DNA by salt gradient dialysis; checked by native and SDS PAGE. As to conditions: both partners purified.

The target of assay [2] is T2, T. brucei canonical histone H2A (T. brucei brucei, UniProt Q57YA3 2-134).
T2 construct: Canonical histone H2A of Trypanosoma brucei brucei, Tb927.7.2820, pET21a plasmid from the Janzen lab; also called Tb H2A
T2 sequence: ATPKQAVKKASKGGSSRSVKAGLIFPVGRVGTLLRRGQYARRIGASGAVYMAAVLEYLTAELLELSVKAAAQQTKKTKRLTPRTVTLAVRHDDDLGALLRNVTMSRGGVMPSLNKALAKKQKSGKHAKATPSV
The assay can be described thus: cryo-EM structure; H3.V-H4.V NCP (H2A, H2B, H3.V, H4.V) wrapped with Widom 601 145 bp DNA, crosslinked with 0.05% glutaraldehyde, separated by SEC; grids in 10 mM Tris pH 8.0, 30 mM NaCl, 1 mM EDTA, 1 mM DTT; global resolution 3.2 Å. As to conditions: both partners purified.

B1: T. brucei canonical histone H4 (natural protein)
chain: not shown
notes: Canonical histone H4 of Trypanosoma brucei brucei, Tb927.5.4170, pET21a plasmid from the Janzen lab; also called Tb H4
B1: the binding result in assay [1] is recorded as “binds”.

B2: T. brucei canonical histone H2B (natural protein, T. brucei brucei)
chain: ATPKSTPAKTRKEAKKTRRQRKRTWNVYVSRSLRSINSQMSMTSRTMKIVNSFVNDLFERIAAEAATIVRVNRKRTLGARELQTAVRLVLPADLAKHAMAEGTKAVSHASS
notes: Canonical histone H2B of Trypanosoma brucei brucei, Tb927.10.10480, pET21a plasmid from the Janzen lab; also called Tb H2B
As for B2, the binding result in assay [2] was “binds”.
